Bounds are passed on as bounds.

This assay deals with β-casein.

On to Hin47 Ser-197→alanine analog (enzyme), for which the protease activity on the substrate β-casein is less than 10%.

Source of the values: US6153580.
